Biological target: T1, Fur-His6 (CjFur-His6) (Campylobacter jejuni 81-176) (UniProt P0C631)
T1 sequence: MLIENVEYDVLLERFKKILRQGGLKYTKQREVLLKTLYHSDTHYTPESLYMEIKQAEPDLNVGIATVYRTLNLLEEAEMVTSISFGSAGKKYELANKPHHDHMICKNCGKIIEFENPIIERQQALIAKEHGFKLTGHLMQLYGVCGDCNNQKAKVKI
Assay: EMSA
Conditions: 10 mM Tris-HCl pH 7.5, 1 mM MgCl2, 0.5 mM DTT, 50 mM KCl, 100 uM MnCl2 (omitted where stated), 1 ug poly(dI-dC), 50 ug BSA, 5% glycerol, 20 ul, ~28 fmol DNA …

GCTAATGCAAAACTTGAATAAAATACAAGAGCTAAAACAAATTTGCAAAAAAATTTACGCATATTATATCCTTGGTTAAATAAAATTTTCAAAGATAATTTTATTTAAAAAAATAAATAAGCCCAAATTTATTTTTGGGCTTATTGTTATTTTTTAGGATTGAATGCTTGATCAACACTAAAAGGCATTGCTTGATAACCCGTGCCTGAACCGCTAAATTGAATTTGAACCGAAGGCTCCTTAGCACCCCAGTTAAATTCATCAATTTCAGGTTTTGGCTCTCCAAGACTTACACCT (double strand) [dsbA1 promoter region]
binding: no binding

Reference: publication PMC3167755
